This passage reports Kd results from US20070280881A1.

The Kd is the constant that tells how readily two partners part at equilibrium. Low values mean a tighter complex, high ones a looser complex.

The target in this test is TAG-72 (tumor associated antigen TAG-72) (human). Kind of test: binding data (text calls it ED50), method not stated; ELISA on TAG-72 coated plates per Example 7.
The substance “CC49.ΔCH2 [gly/ser] (domain deleted CC49 with Gly/Ser spacer) (antibody)” returned a Kd of 1.8 nM. This counts as single-digit nanomolar.
“ddCC49, no spacer (huCC49.ΔCH2, unfractionated mixture of 120 kDa and 240 kDa forms) (antibody)”: the Kd was determined as 0.8 nM.
Consider Humanized CC49 IgG (antibody), for which the Kd came to 2.5 nM.
